pKd: −log10 of the molar value.

This test deals with Netrin-1-FlagM2 (recombinant netrin-1, Apotech). The experiment in a line: ELISA: DCC-5Fbn 100 ng coated, netrin-1 0 to 800 ng, IL3-R values subtracted. In general terms: ELISA stands for enzyme-linked immunosorbent assay.

As usually defined, the pKd is −log10 of the Kd, conventionally taken in molar units. As for “DCC-5Fbn (recombinant soluble fifth fibronectin type III domain of DCC) (from UniProt P43146 846-942) (receptor)”, the negative-log Kd (pKd) is 8.30.

Values taken from patent US20090226458A1.
